Assay results: patent US20190323037, “REPLICATIVE TRANSPOSON SYSTEM” (HORIZON DISCOVERY LIMITED, published 2019)

Experiments:
[1] = biological target: T1, Helraiser transposase (RepHel, Helitron) (Myotis lucifugus); experiment: EMSA; text says cleavage-assay oligonucleotides bound; details: tags: His tag (pFastBac HT-A), TEV-cleaved, insect cells, label: 6-FAM
T1 chain: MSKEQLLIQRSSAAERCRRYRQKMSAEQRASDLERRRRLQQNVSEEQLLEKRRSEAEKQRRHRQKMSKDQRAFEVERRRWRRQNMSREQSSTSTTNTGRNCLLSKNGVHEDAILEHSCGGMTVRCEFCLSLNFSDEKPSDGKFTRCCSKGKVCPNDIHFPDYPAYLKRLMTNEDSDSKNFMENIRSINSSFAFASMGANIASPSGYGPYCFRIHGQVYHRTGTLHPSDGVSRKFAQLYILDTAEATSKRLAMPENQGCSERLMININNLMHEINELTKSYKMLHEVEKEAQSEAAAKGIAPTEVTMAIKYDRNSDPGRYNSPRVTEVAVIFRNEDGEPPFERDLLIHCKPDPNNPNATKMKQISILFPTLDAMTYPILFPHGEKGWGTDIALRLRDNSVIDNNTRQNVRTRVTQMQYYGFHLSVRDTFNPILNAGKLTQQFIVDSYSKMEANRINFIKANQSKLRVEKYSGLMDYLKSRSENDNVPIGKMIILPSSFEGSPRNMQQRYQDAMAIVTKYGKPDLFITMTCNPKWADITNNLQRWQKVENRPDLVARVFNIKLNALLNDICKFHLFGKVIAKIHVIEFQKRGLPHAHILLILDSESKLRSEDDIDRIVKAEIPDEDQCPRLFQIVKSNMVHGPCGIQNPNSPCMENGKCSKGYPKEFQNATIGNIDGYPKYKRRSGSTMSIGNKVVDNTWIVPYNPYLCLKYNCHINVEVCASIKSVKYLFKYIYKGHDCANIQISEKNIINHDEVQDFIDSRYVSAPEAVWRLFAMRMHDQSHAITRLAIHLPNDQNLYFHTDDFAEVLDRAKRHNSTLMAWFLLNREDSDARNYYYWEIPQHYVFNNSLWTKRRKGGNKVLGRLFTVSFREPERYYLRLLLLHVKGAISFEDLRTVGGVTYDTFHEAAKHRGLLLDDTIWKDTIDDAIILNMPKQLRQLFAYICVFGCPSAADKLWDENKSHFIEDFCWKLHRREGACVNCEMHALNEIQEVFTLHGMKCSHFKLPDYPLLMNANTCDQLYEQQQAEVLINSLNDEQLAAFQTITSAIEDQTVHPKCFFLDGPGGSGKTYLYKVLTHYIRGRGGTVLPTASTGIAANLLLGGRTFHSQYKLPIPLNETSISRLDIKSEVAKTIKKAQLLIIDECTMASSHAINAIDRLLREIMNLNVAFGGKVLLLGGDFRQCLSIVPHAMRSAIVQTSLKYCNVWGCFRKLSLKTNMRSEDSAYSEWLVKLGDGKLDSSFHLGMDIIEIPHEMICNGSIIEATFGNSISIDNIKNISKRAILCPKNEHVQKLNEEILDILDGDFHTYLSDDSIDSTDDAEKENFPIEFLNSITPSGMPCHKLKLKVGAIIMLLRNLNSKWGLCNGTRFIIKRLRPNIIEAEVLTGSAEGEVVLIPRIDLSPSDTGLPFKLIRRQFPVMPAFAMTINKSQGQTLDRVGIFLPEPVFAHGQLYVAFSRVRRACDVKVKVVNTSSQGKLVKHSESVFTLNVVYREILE
Description: (§1) Binding of the Helraiser transposase to various DNA oligonucleotides was measured by EMSA using 6% TBE gels (Invitrogen). Purified protein at 15 nM-150 nM was incubated for 30 min at room temperature in binding buffer (50 mM Tris pH 7.5, 100 mM NaCl, 10 mM MgCl₂, 0.5 mM ETDA, 1 mM TCEP) with 50 nM 6-FAM labeled oligonucleotides. After addition of DNA gel loading solution (Quality Biological, INC), samples were run on 6% TBE gels and visualized.

[2] = biological target: T1, Helraiser transposase (RepHel, Helitron); experiment: EMSA; 10 mM MgCl2, 100 mM NaCl, pH 7.5, RT; 50 nM oligo; text says cleavage-assay oligonucleotides; details: tags: His tag (pFastBac HT-A), TEV-cleaved; insect cells; label: 6-FAM
Description: as §1

| Binder | binding result [1] | further results |
| --- | --- | --- |
| CCCTTTCAATGTGCACGAATTTCGTGCACCGGGCCACTAGTATATATATA (ssDNA) [Helraiser RTS substrate (+), top strand] | – | binding result ([1]; potential hairpin (19-nt palindrome)): binds |
| TATATATATACTAGTGGCCCGGTGCACGAAATTCGTGCACATTGAAAGGG (ssDNA, [NONE]) [Helraiser RTS substrate (-), bottom strand] | binds | – |
| GGGATGGTCAATTTGCATGTTTCTCTTTTATTATATAGGATCATATGGTG (ssDNA, [NONE]) [Helraiser LTS substrate (-), bottom strand] | binds | – |
| CACCATATGATCCTATATAATAAAAGAGAAACATGCAAATTGACCATCCC (ssDNA) [Helraiser LTS substrate (+), top strand] | – | binding result [2]: binds |
